In paper doi:10.1101/2024.12.17.628889:

Target: wild-type PERK BiFC construct (pEZY BiFC pre-NV(CV)-PERK) (human) (UniProt Q9NZJ5)
Experiment: split reporter

Sequence of UniProt Q9NZJ5 (Q9NZJ5 30-1116): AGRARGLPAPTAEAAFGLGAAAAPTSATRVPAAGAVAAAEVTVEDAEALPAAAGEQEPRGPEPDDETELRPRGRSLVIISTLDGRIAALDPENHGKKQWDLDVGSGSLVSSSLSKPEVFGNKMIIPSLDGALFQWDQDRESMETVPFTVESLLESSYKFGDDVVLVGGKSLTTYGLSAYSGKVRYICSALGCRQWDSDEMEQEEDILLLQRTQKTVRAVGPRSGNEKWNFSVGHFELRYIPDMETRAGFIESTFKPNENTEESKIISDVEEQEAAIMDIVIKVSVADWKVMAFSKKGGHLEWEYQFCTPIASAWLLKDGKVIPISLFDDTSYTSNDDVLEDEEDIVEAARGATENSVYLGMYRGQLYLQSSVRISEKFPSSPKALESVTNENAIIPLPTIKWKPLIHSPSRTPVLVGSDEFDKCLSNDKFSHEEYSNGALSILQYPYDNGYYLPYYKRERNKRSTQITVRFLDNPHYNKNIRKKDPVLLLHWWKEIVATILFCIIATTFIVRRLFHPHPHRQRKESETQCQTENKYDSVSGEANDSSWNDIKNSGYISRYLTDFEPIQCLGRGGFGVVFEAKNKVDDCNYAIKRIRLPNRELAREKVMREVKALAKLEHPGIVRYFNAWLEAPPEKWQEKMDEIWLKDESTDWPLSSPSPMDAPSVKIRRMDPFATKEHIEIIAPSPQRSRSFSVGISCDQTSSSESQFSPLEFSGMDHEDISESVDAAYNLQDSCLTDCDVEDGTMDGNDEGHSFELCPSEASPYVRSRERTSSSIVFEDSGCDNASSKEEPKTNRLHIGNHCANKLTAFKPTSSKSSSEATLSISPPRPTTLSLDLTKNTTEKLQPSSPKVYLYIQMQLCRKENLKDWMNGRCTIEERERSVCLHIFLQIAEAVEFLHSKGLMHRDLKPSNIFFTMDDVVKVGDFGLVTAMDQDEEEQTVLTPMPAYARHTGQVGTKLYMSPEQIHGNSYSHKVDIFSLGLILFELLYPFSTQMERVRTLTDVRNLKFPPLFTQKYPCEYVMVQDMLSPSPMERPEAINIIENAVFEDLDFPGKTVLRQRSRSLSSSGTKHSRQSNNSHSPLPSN

BiFC fluorescence intensity relative to the CDNF-IRE1α interaction	BiFC fluorescent signal relative to wt CDNF and the other mutants	Substance
7 times higher		CDNF BiFC construct (pEZY BiFC pre-CDNF-NV(CV)) (from UniProt Q49AH0 25-187) (natural protein)
	5 times lower	CDNF K122A BiFC construct (natural protein)
